The source of these data is EP4089108A1 (Cytoki Pharma ApS, dated 2022).

The experiment deals with T1, human IL-22 receptor (human IL-22Ra and human IL-10Rb) expressed on BHK reporter cells (human, UniProt Q8N6P7 16-574; Q08334 20-325).
T1 sequence (looked up) 1: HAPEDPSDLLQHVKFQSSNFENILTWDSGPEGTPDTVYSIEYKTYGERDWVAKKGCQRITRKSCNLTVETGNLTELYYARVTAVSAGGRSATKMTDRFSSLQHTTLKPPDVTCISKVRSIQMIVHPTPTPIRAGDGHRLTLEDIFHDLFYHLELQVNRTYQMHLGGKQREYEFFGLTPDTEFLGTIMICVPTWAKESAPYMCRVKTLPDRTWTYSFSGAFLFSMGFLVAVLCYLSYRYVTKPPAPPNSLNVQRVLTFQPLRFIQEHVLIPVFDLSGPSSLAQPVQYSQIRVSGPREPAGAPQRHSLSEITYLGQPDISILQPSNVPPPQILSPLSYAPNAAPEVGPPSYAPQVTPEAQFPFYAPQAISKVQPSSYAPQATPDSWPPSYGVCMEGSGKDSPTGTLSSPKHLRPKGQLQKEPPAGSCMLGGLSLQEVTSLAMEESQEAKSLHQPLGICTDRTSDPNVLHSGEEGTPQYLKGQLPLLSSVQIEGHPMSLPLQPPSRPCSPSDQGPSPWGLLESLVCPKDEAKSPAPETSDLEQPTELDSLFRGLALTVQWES
T1 sequence (looked up) 2: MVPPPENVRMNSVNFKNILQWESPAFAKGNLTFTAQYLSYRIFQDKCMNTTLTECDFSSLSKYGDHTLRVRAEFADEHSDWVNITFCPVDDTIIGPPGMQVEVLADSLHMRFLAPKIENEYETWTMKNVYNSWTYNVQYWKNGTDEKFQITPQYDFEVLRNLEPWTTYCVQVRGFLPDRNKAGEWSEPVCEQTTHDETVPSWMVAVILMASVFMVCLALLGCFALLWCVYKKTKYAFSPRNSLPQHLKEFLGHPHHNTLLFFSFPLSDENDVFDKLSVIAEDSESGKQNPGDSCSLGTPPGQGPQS
In words: cell-based or functional assay.

B1: native mature human IL-22 (ligand)
chain: APISSHCRLDKSNFQQPYITNRTFMLAKEASLADNNTDVRLIGEKLFHGVSMSERCYLMKQVLNFTLEEVLFPQSDRFQPYMQEVVPFLARLSNRLSTCHIEGDDLHIQRNVQKLKDTVKKLGESGEIKAIGELDLLFMSLRNACI
Turning to B1, the “EC50, BHK cell reporter gene assay (luciferase with STAT3-induced promoter)” value worked out at 0.07 nM.

B2: Derivative 1 (ligand)
chain: GPGCPISSHCRLDKSNFQQPYITNRTFMLAKEASLADNNTDVRLIGEKLFHGVSMSERCYLMKQVLNFTLEEVLFPQSDRFQPYMQEVVPFLARLSNRLSTCHIEGDDLHIQRNVQKLKDTVKKLGESGEIKAIGELDLLFMSLRNACI
modifications: C16 monoacid covalently attached through linker γGlu-OEG-OEG-εLys-αAc to Cys at position 1 of hIL-22 numbering (attachment site 1C; position 4 of SEQ ID NO. 20)
Regarding B2, the “EC50, BHK cell reporter gene assay (luciferase with STAT3-induced promoter)” value was determined as 0.06 nM.
